According to the supplement of paper PMC9170038:

Tested on: MS2 coat protein
Assay: apparent KD of MS2 coat protein; designed switch direction (-1 OFF switch, 1 ON switch): 1; higher = weaker reporter binding
Method in brief: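 Transcription of designed RNA switches on Illumina chips was done by stalled E. coli RNA polymerase. SNAP-549-labelled MS2 coat protein was then titrated in doubling steps from 0.7 or 1.5 nM to 3 µM, with steps of 0.8–1.5 h at the lowest and 10–20 min at the highest concentration. The per-design median over clusters of curve-fitted normalised fluorescence is reported as apparent KD.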

[1] = input ligand: microRNA oligo, concentration not stated
[2] = Eterna round: R95, input ligand: FMN 200 uM
[3] = Eterna round: R95, input ligand: microRNA oligo, concentration not stated
[4] = Eterna round: R95, input ligand: none

Row | Sequence | apparent KD of MS2 coat protein (input ligand: FMN 200 uM) [nM] | apparent KD of MS2 coat protein [1] [nM] | apparent KD of MS2 coat protein (input ligand: none) [nM] | apparent KD of MS2 coat protein [2] [nM] | apparent KD of MS2 coat protein [3] [nM] | apparent KD of MS2 coat protein [4] [nM]
1 | UUCUCAUUUACAUGAGGAUCACCCAUGUUUUUUUGUCAGAGAUAGGAUAUAGUUCUCUCGUUUUUCUAGAAGGAUCUUUUUAUU [JR_SSNG3_Sub087] (Eterna round: R96, puzzle: Same State NG 3) | 79.7 | 53.2 | 71.7 |  |  | 
2 | GUGUGUUGCGGGCAGGAUAUGUACUUGAGUACAUGAGGAUCACCCAUGUGCGGGUGUUUCACCCGACAGAAGGGCCUAUCGCGAC [JL-ss2-3.25 ViennaUCT mod] (Eterna round: R96, puzzle: Same State 2) | 252 | 457 | 1070 |  |  | 
3 | GCGAGCGUACUUGCAGACAUGAGGAUCACCCAUGUAAAUGGGAAGGAUAUGGUACCGUUUCGGUACCAGAAGGUCCUAAGUGAU [salish99_SSNG3_r04_301] (Eterna round: R96, puzzle: Same State NG 3) | 665 | 1080 | 1130 |  |  | 
4 | UGAAUAGUGAUAGGAUAUACAUGAGGAAUCCUCGUAGAAGGAUCACGACAUGAGGAUCACCCAUGUAGCCGUCCGUAGACGGCA [Mat - Same State NG 1 - JL mod - D59] (Eterna round: R96, puzzle: Same State NG 1) | 353 | 66.4 | 231 |  |  | 
5 | UUGAAGAAUUAAGGAUAUUGAAUACAUAUGUUUAACAUGAGGAUCACCCAUGUGGGUUGCGGUAUCGAGAAGGUAAAUUACUAA [Mat - Same State NG 2 - JL mod - D1] (Eterna round: R96, puzzle: Same State NG 2) | 140 | 80.5 | 112 |  |  | 
6 | ACAUGAGACAUAGGAUAUCUUGUACCUACAUGUGACAUGAGGAUCACCCAUGUGGUAAGUAUGAGAGAGAAGGAUGAGAUAUGU [Equivalence 48 - Jieux - Same State NG 2] (Eterna round: R96, puzzle: Same State NG 2) | 17.5 | 17.9 | 20.6 |  |  | 
7 | CGAUGAUACUUAGGAAGAAGAGUUGAAGUACAUGAGGAUCACCCAUGUCAGAGCUUUUUGCUCGUCAUGAACAGGAA [JR_SHM208a_Sub006] (puzzle: Sensor for hsa-mir-208a) |  |  |  | 47.9 | 27.7 | 52.9
8 | UUAUCUCUUACAUGAGGAUCACCCAUGUUUUUAUGUCUUAGACAGGAUAUAGUAGUCUCGUAUUACUAGAAGGGUCUUUUUAUU [JR_SSNG3_Sub020] (Eterna round: R96, puzzle: Same State NG 3) | 18.7 | 22.4 | 26.4 |  |  | 
9 | GGUGAGAGAGUCAAGGAUAUUAAAGGAGAGACAUGAGGAUCACCCAUGUAAGAGAGAGAGGAGAGUGAGAAGGUGAAGAGAGUGG [Altered State 2-25 - Jieux - Same State 2] (puzzle: Same State 2) |  |  |  | 30.4 | 25 | 60.6
10 | ACAUGAGGAUCACCCAUGUAUAGAUUUGAAUGUUAAGUUACGUAGGAUAUCGUGUUUAGUAUGAUCGAGAAGGACGAUCUGAUA [JR_SSNG3_Sub066] (Eterna round: R96, puzzle: Same State NG 3) |  | 18.6 |  |  |  | 
11 | UUCUGAUAGCGAGGAUAUCGCGAGGAUCACCCGUGAGAAGGCGCAGAGCCGAGGAUCACCCGGCUGAUCCUGAGAAGGAGGUCA (Eterna round: R96, puzzle: Same State NG 1) | 136 | 333 | 530 |  |  | 
12 | CGUCCGGCCUGUGCUGGCCGGAAGCAUGUACAUGAGGAUCACCCAUGUUCAUGUGCAGGCUUUUUGCUCGUCUUGUG [salish99_mir208a_r3_006] (puzzle: Sensor for hsa-mir-208a) |  |  |  | 41.3 | 12.4 | 39.4
13 | GGUCGGACUCACAUGAGGAUCACCCAUGUUGCGGAAACGCGGCAGGAUAUCUGUCCGAAAAGGUCAGAGAAGGGUCAACCGACC [Fiskers NG3ss - 62] (Eterna round: R96, puzzle: Same State NG 3) | 644 | 141 | 199 |  |  | 
14 | CCGCUCCGUGGAGGAUAUGGGCCUGCCCGGGAUACCGAGCCUAACACAUGAGGAUCACCCAUGUCCCAGAAGGCCGCUGGAGCC [Inusaron] (Eterna round: R96, puzzle: Same State NG 2) | 30.7 | 52.8 | 90.7 |  |  | 
15 | AGCGAGAUAGGCAAGGAUAUGCUGGGUUGCACAUGAGGAUCACCCAUGUCAUUGGUUAUGGCCGAGCAGAAGGUGCAUUCUCUUU [ak bound state near shape] (puzzle: Same State 2) |  |  |  | 19.5 | 75.6 | 66.5
16 | AUCAAUCUAUCUGAGGAUAUCAUGAAAUAAACAUGAGGAUCACCCAUGUGCAGGAAAACUGCAUAUGAGAAGGCAGAUAGAUUGA [salish99_ss2_r3_019] (puzzle: Same State 2) |  |  |  | 63.9 | 323 | 879
17 | CGUCCGGCCUGUGCUGGCCGGUAGCUUGUACAUGAGGAUCACCCAUGUUCUUGUGCAGGCUUUUUGCUCGUCUUGUG [salish99_mir208a_016] (puzzle: Sensor for hsa-mir-208a) |  |  |  | 365 | 23.9 | 452
18 | AAAAGAAACACAGGAUAUACCGCGCUUAACGCGGUAGAAGGGUGGGACAUGAGGAUCACCCAUGUGGCCUGAGCGCCAGGCCGC [Uszadi] (Eterna round: R96, puzzle: Same State NG 1) | 428 | 14.1 | 299 |  |  | 
19 | AUAAUUUAUGCAGGAUAUGAUUAACAUGAGGAUCACCCAUGUGGUGUUGUGAGUAAGGAGAGUGAUCAGAAGGGCAUUUUUUUU [JMF's solution 70] (Eterna round: R96, puzzle: Same State NG 2) | 734 | 391 | 400 |  |  | 
20 | GUAGCAUACCGAGGAUAUUCAUAUUACAUGAGGAUCACCCAUGUAAGGCCACAUUAGUGGCCUUGGGAGAAGGCGGAAUGCUAC [Xeonanis - 20 Mod42] (Eterna round: R96, puzzle: Same State NG 2) | 18.3 | 30 | 180 |  |  | 
21 | AGUCCAGCCUGAGCUGGACAAAAGCAUGUACAUGAGGAUCACCCAUGUUCAUGUACUAGCUUUUUGCUCGUCUUGCC [salish99_208a_r3_108x] (puzzle: Sensor for hsa-mir-208a) |  |  |  | 157 | 14.8 | 163
22 | UAAAUACAUGAGGAUCACCCAUGUCAAAAGACAUGAGGAUAUGUACAGACUUCGGUCUGUACAGAAGGCAUGAAUA [salish99_ss1_r3_096] (puzzle: Same State 1) |  |  |  | 34.4 | 294 | 566
23 | AUCCCAUCGGGAGGAUAUGGAACCUUAUUGGUUCUAGAAGGUCCAACAUGAGGAUCACCCAUGUGGGAGUGGUCUAAUGACCAC [SS NG10LRO01] (Eterna round: R96, puzzle: Same State NG 1) | 190 | 208 | 414 |  |  | 
24 | GCUCGUAUGAUGACCGACAUGAGGAUCACCCAUGUGUGUCGGUAGGAUAUCUAUAUUAAGGAUAUAGAGAAGGGCCCAACGAGC [SameState NG3 #18] (Eterna round: R96, puzzle: Same State NG 3) | 114 | 103 | 158 |  |  | 
25 | CUGAGCGAUUAAGGAUAUCACGUCGUUUAGACGUGAGAAGGUGAUCAUAACAUGAGGAUCACCCAUGUAUUACAUGAAGCUCAG [SSNG1/3-A3] (Eterna round: R96, puzzle: Same State NG 1) | 614 | 98.1 | 128 |  |  | 
26 | GCUAGAAAUAAAGCCAACAUGAGGAUCACCCAUGUAUGUUGGCAGGAUAUCGUUUGCAAAGCAAACGAGAAGGGCUAAACUAGC [Mat - Same State NG 3 - JL Mod - D5] (Eterna round: R96, puzzle: Same State NG 3) | 141 | 138 | 147 |  |  | 
27 | GCUGGAACUCACAUGAGGAUCACCCAUGUUCCGGAAACGGCACAGGAUAUCUGUCCGAAAAGGUCAGAGAAGGGUGUAACCAGC [Fiskers NG3ss - 87] (Eterna round: R96, puzzle: Same State NG 3) | 137 | 51 | 88.8 |  |  | 
28 | GUACAGAUCACAGGAUAUCACGUCGAAUAGACGUGAGAAGGGUGAUCACACAUGAAUAUUAAUACAUGAGGAUCACCCAUGUAC [SSNG1/16-A1] (Eterna round: R96, puzzle: Same State NG 1) | 71 | 14.1 | 20.4 |  |  | 
29 | AACAAUCUAUCUGAGGAUAUCAUGAAAUAAACAUGAGGAUCACCCAUGUGCAGGAAAACUGCAUAUGAGAAGGCAGAUAGUUUGA [salish99_ss2_r3_056] (puzzle: Same State 2) |  |  |  | 47.5 | 716 | 855
30 | GUUACAUGAGGAUCACCCAUGUAUGUGUGGGAGUAAGUGUCUUAGGAUAUCUAGUGUUUAAUUUAAGAGAAGGAAGAUUGUUGU [JMF's solution 53] (Eterna round: R96, puzzle: Same State NG 3) | 134 | 96.8 | 116 |  |  | 
